Measurements: patent US20240024426A1, “HYPOTENSIVE PHARMACEUTICAL COMPOSITION COMPRISING TRIPLE ACTIVATOR HAVING ACTIVITY FOR ALL OF GLUCAGON, GLP-1, AND GIP RECEPTORS” (HANMI PHARM. CO., LTD., priority 2020, published 2024)
Bridges are numbered along the chain shown (N, C = ends). Where no end group is shown, it is not given here. [ ]: non-standard residue; d: D form. The star is where a group is joined. Acetyl(2-(4-imidazolyl)) = O=C(Cc1c[nH]cn1)*; Aib = CC(C)(N)C(=O)O

T1: human GIP receptor (human, UniProt P48546 22-466)
T1 sequence (looked up): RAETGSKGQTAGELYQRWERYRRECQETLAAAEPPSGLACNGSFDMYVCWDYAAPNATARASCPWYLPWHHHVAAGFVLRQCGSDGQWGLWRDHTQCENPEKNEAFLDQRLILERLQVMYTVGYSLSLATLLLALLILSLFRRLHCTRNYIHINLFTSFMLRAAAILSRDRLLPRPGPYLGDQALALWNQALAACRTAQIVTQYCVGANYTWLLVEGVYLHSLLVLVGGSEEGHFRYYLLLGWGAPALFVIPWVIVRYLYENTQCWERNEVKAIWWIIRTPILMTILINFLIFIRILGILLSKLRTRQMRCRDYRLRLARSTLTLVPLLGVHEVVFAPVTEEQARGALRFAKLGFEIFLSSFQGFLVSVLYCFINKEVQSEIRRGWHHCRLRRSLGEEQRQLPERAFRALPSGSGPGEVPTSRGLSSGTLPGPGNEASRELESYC


Key:
Assay in all cases: cell-based or functional assay
human GLP-1 receptor = human GLP-1 receptor (human, UniProt P43220 24-463)
human GCG receptor = human GCG receptor (human, UniProt P47871 26-477)
human GIP receptor = target: T1, human GIP receptor

human GCG receptor, sequence (P47871 26-477): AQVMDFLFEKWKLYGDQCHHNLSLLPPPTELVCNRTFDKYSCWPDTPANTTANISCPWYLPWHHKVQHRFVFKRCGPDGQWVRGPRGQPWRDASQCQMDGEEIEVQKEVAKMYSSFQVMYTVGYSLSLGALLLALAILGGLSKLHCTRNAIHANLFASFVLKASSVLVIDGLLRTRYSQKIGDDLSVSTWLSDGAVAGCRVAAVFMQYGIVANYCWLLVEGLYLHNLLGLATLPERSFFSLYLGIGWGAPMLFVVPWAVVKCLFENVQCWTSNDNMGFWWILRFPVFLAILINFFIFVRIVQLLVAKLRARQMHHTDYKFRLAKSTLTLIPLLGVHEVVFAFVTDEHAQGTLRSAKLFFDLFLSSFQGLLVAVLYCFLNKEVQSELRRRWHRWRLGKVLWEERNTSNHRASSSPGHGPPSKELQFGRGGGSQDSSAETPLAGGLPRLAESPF

Binder	In vitro activity compared with native peptide (%) vs. GLP-1 (human GLP-1 receptor) [%]	In vitro activity compared with native peptide (%) vs. Glucagon (human GCG receptor) [%]	In vitro activity compared with native peptide (%) vs. GIP (human GIP receptor) [%]
H[Aib]QGTFTSDVSKYLDGQAAKEFVAWLLKGC [Triple agonist of SEQ ID NO: 7]	13.7	< 0.1	< 0.1
H[Aib]QGTFTSDYSKCLDEKRAKEFVQWLLDHHPSSGQPPPS (bridge 16-20) [Triple agonist of SEQ ID NO: 65]	95.4	25.2	11.6
Y[Aib]QGTFTSDYSKYLDECAAKDFVQWLLDHHPSSGQPPPS (also: ring formation, positions not given here) [Triple agonist of SEQ ID NO: 67]	28.5	46.2	39.8
Y[Aib]QGTFTSDYSKCLDEKAAKEFVQWLLDHHPSSGQPPPS (bridge 16-20) [Triple agonist of SEQ ID NO: 68]	27.9	8.8	107
Y[Aib]QGTFTSDYSKYLDECAAKEFVQWLLDHHPSSGQPPPS (bridge 16-20) [Triple agonist of SEQ ID NO: 64]	64.6	60.1	92.9
Y[Aib]QGTFTSDYSKYLDECRAKDFVQWLLDHHPSSGQPPPS (bridge 16-20) [Triple agonist of SEQ ID NO: 66]	15.8	172	17.2
Y[Aib]QGTFTSDYSKYLDERACKDFVQWLLDHHPSSGQPPPS (bridge 16-20) [Triple agonist of SEQ ID NO: 71]	90.1	12.7	94.7
Y[Aib]QGTFTSDYSKCLDEKRAKDFVQWLLDHHPSSGQPPPS (bridge 16-20) [Triple agonist of SEQ ID NO: 70]	15.1	71.3	64.4
{Acetyl(2-(4-imidazolyl))}-[Aib]QGTFTSDYSIAMDEIACKDFVNWLLNTK (bridge 15-19) [Triple agonist of SEQ ID NO: 61]	59.8	< 0.1	2.8
Y[Aib]QGTFTSDYSKCLDERAAKEFVQWLLDHHPSSGQPPPS (bridge 16-20) [Triple agonist of SEQ ID NO: 69]	24.3	9.6	62.8
{Acetyl(2-(4-imidazolyl))}-[Aib]QGTFTSDCSKYLDERAAQDFVQWLLDGGPSSGAPPPS [Triple agonist of SEQ ID NO: 63]	15.3	< 0.1	< 0.1
{Acetyl(2-(4-imidazolyl))}-[Aib]QGTFTSDKSKYLDERAAQDFVQWLLDGGPSSGAPPPS [Triple agonist of SEQ ID NO: 62]	5.2	< 0.1	< 0.1
